How the values were obtained:
RSV_FixBB = RSV_FixBB (UniProt P0AFA2); experiment: SPR
Surf_03 = Surf_03 (UniProt P0AFA2); experiment: SPR

B1: D25 Fab (Fab, V domains shown)
VH: QVQLVQSGAEVKKPGSSVMVSCQASGGPLRNYIINWLRQAPGQGPEWMGGIIPVLGTVHYAPKFQGRVTITADESTDTAYIHLISLRSEDTAMYYCATETALVVSTTYLPHYFDNWGQGTLVTVSS
VL: DIQMTQSPSSLSAAVGDRVTITCQASQDIVNYLNWYQQKPGKAPKLLIYVASNLETGVPSRFSGSGSGTDFSLTISSLQPEDVATYYCQQYDNLPLTFGGGTKVEIK
RSV_FixBB
  Kd: 99 nM
Surf_03
  Kd: 360 nM
